# Measured values as given in IntAct's records for PubMed 20711168.
# B1: Dynamin-2 (Rattus norvegicus (Rat)), P39052 (parent)
# chain: MGNRGMEELIPLVNKLQDAFSSIGQSCHLDLPQIAVVGGQSAGKSSVLENFVGRDFLPRGSGIVTRRPLILQLIFSKTEYAEFLHCKSKKFTDFDEVRQEIEAETDRVTGTNKGISPVPINLRVYSPHVLNLTLIDLPGITKVPVGDQPPDIEYQIKDMILQFISRESSLILAVTPANMDLANSDALKLAKEVDPQGLRTIGVITKLDLMDEGTDARDVLENKLLPLRRGYIGVVNRSQKDIEGRKDIRAALAAERKFFLSHPAYRHMADRMGTPHLQKTLNQQLTNHIRESLPTLRSKLQSQLLSLEKEVEEYKNFRPDDPTRKTKALLQMVQQFGVDFEKRIEGSGDQVDTLELSGGARINRIFHERFPFELVKMEFDEKDLRREISYAIKNIHGVRTGLFTPDLAFEAIVKKQVVKLKEPCLKCVDLVIQELISTVRQCTSKLSSYPRLREETERIVTTYIREREGRTKDQILLLIDIEQSYINTNHEDFIGFANAQQRSTQLNKKRAIPNQGEILVIRRGWLTINNISLMKGGSKEYWFVLTAESLSWYKDEEEKEKKYMLPLDNLKIRDVEKGFMSNKHVFAIFNTEQRNVYKDLRQIELACDSQEDVDSWKASFLRAGVYPEKDQAENEDGAQENTFSMDPQLERQVETIRNLVDSYVAIINKSIRDLMPKTIMHLMINNTKAFIHHELLAYLYSSADQSSLMEESAEQAQRRDDMLRMYHALKEALNIIGDISTSTVSTPVPPPVDDTWLQNTSSHSPTPQRRPVSSVHPPGRPPAVRGPTPGPPLIPMPVGATSSFSAPPIPSRPGPQNVFANNDPFSAPPQIPSRPARIPPGIPPGVPSRRAPAAPSRPTIIRPAEPSLLD
# Variants of: B1
# Settings: with sh3k1_human SH3KBP1, Q96B97
# Sequence of sh3k1_human SH3KBP1, Q96B97 (Q96B97 whole entry): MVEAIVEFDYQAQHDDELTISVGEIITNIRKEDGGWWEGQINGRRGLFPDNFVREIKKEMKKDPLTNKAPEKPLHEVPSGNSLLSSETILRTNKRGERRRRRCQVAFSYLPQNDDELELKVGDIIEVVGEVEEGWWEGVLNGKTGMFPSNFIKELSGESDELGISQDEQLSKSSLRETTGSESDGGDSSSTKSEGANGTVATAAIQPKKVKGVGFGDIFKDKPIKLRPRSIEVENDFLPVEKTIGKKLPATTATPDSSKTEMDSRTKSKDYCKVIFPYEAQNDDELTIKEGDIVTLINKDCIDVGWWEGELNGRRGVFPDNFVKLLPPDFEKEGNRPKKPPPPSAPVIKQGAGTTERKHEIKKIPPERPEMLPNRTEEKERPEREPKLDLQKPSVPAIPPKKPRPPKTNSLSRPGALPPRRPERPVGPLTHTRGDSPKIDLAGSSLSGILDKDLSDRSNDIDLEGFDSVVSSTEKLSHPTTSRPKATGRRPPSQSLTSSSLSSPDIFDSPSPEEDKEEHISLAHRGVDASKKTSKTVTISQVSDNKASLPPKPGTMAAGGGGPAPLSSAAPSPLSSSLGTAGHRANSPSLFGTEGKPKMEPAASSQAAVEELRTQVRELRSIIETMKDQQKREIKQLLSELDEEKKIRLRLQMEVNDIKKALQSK
row,Variant,effect of a mutation on the interaction
1,P765A,disrupting interaction
2,P767A,disrupting interaction
